Test results from patent US20220273751A1, “GPCR HETEROMER INHIBITORS AND USES THEREOF” (GPCR THERAPEUTICS, INC., priority 2019, published 2022).

Biological target: T1, CXCR4-VC (CXCR4 fused with C-terminal fragment of Venus) (human)
T1 chain: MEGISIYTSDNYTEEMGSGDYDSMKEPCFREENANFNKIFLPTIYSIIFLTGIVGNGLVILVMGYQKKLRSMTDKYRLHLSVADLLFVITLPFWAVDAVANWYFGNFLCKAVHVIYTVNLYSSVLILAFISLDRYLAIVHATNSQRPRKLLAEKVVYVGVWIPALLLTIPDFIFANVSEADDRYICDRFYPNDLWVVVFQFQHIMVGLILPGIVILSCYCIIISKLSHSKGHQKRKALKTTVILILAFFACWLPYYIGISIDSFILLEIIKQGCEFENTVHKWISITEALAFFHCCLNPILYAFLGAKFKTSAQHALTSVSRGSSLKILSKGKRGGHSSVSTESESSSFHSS
Assay: BiFC, U-2 OS cells co-transduced with adenoviruses (30 MOI each)
Settings: remark: other sources report otherwise; scale: BiFC score =

BiFC score: 9.9
B1: CXCR4-VN (CXCR4 fused with N-terminal fragment of yellow fluorescent protein Venus), P61072 1-352 (receptor, not shown: small tags and cut ends)
chain: T1 chain
modifications: here or on the partner: Venus N-terminal fragment (VN) fused to the receptor. Its letters are not given, so it is left out.; Venus C-terminal fragment (VC) fused to the receptor. Its letters are not given, so it is left out.
